Source: the supplement of paper PMC12764529
± gives the half width of the 95% confidence interval.

Legend:
[1] = folding stability dG unfold (combined trypsin and chymotrypsin); higher = more stable
Method in brief: (§1)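 Bayesian fitting of sequencing counts gave K50 for each design. Unfolding free energy followed by setting this against a sequence-predicted unfolded-state K50 and a shared folded-state K50, either per protease or with trypsin and chymotrypsin combined. The designs, under 80 residues and lacking cysteine, were digested in a PA-tagged cDNA display format at 11 threefold-diluted protease concentrations and without protease, and only those with AlphaFold2 dimer inter-PAE above 15 were kept.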

[2] = folding stability dG unfold from chymotrypsin proteolysis; higher = more stable
Method in brief: as §1

[3] = folding stability dG unfold from trypsin proteolysis; higher = more stable
Method in brief: as §1

## SAGGSAGGSDNVKIEWEYNPENGVYTHEVYYDDGRPVTIIINPAEGPIWVFDPPDGKPIAPIPSAGGSAGGS [r12_657_TrROS]
[1]
  folding stability dG unfold: 1.07 ± 0.073 kcal/mol
[2]
  folding stability dG unfold: 0.833 ± 0.023 kcal/mol
[3]
  folding stability dG unfold: 1.36 ± 0.05 kcal/mol

## SMKPGDVKVIEIEVEYPWPPGDPEKAKEKVRDLVNSIMQEHGYDVDIPVEIEPRDGRYRVEVPIIIRPPNSA [r9_889_TrROS]
[1]
  folding stability dG unfold: -0.409 ± 0.25 kcal/mol
[2]
  folding stability dG unfold: -0.771 ± 0.36 kcal/mol
[3]
  folding stability dG unfold: 0.0547 ± 0.069 kcal/mol

## SAGGSAGGSAGMTLEELLRKAKPGQTLTLRVRVVERNEDGSLSEREFTFTFRLELKPEDLSAGGSAGGSAGG [r11_347_TrROS_Hall]
[1]
  folding stability dG unfold: 3.15 ± 0.21 kcal/mol
[2]
  folding stability dG unfold: 3.61 ± 0.06 kcal/mol
[3]
  folding stability dG unfold: 2.55 ± 0.077 kcal/mol

## SAGMVIPREEALANYSEEEIKELAKKIAEELGYKPKKIEIKKDPSPNSSITVTITPPDGSTIPLVLELPSAG [r5_745_JUSTAS]
[1]
  folding stability dG unfold: 1.06 ± 0.047 kcal/mol
[2]
  folding stability dG unfold: 1.08 ± 0.037 kcal/mol
[3]
  folding stability dG unfold: 0.959 ± 0.041 kcal/mol

## SAGGPGRMREREFEIEFPFEPGQSIEDALRELIGLPPGIQIEDIKVEVDPEDGWVKISVTITVYDPNDSAGG [r13_828_TrROS]
[1]
  folding stability dG unfold: 1.29 ± 0.15 kcal/mol
[2]
  folding stability dG unfold: 1.29 ± 0.071 kcal/mol
[3]
  folding stability dG unfold: 1.22 ± 0.042 kcal/mol

## SAGKKITAEELAKKIAEELGLPEDAKVEVEEVDGTIYIRVEGYVIKITVKDGEITIEIKPAPASPEALKSAG [r5_190_TrROS_Hall]
[1]
  folding stability dG unfold: 2.43 ± 0.28 kcal/mol
[2]
  folding stability dG unfold: 2.91 ± 0.11 kcal/mol
[3]
  folding stability dG unfold: 1.53 ± 0.044 kcal/mol

## SKNYPIRISIFQRNPNGNPQTVTYPIPVDAAKELKDAGFEVKDVDPDSGMIMVKFPMPNYPVYIMISIEDSA [r9_5_TrROS]
[1]
  folding stability dG unfold: 2.98 ± 0.13 kcal/mol
[2]
  folding stability dG unfold: 3.12 ± 0.056 kcal/mol
[3]
  folding stability dG unfold: 2.75 ± 0.093 kcal/mol

## SAGGSAGGSAGSYPIEYIPAPPDRLWLIDPKNGKIYEIYLDPERGEYSFEEIKEFPLGLESAGGSAGGSAGG [r11_352_JUSTAS]
[1]
  folding stability dG unfold: 1.57 ± 0.1 kcal/mol
[2]
  folding stability dG unfold: 1.66 ± 0.073 kcal/mol
[3]
  folding stability dG unfold: 1.34 ± 0.045 kcal/mol

## SAGGSAGGSAGEKTFVIDEVKITSVERLPDGSLRVTIEVRLPNGETLTLTLTLPPGAVLESAGGSAGGSAGG [r11_429_TrROS_Hall]
[1]
  folding stability dG unfold: 3.05 ± 0.07 kcal/mol
[2]
  folding stability dG unfold: 3.19 ± 0.042 kcal/mol
[3]
  folding stability dG unfold: 2.84 ± 0.11 kcal/mol

## SAMKKGEKVKVTLEIEVNGKKYKIELVYDKENNTYTIKIKNEKTGETKTIEVKAKTKEEALEAAKKLLESAG [r14_65_TrROS_Hall]
[1]
  folding stability dG unfold: 2.41 ± 0.16 kcal/mol
[2]
  folding stability dG unfold: 2.55 ± 0.035 kcal/mol
[3]
  folding stability dG unfold: 1.96 ± 0.076 kcal/mol

## SAGGSAGGSAGMKIKTKNGEVIEIKVDKKTGKIEITFPDGKKITIDAPNLTIEDIKKLLESAGGSAGGSAGG [r11_729_TrMRF]
[1]
  folding stability dG unfold: 2.36 ± 0.051 kcal/mol
[2]
  folding stability dG unfold: 2.34 ± 0.047 kcal/mol
[3]
  folding stability dG unfold: 2.47 ± 0.064 kcal/mol

## SAGGMVLVEPSPDAVVRVIEREGDLARVTVYDPRSGARTVELVPIAPTGKGGVRLETLEVRVLPDAEASAGG [r13_556_JUSTAS]
[1]
  folding stability dG unfold: -0.0934 ± 0.057 kcal/mol
[2]
  folding stability dG unfold: -0.0954 ± 0.048 kcal/mol
[3]
  folding stability dG unfold: -0.136 ± 0.035 kcal/mol

## SMTTRESTIDASIPGYTVSKVSVTTLPGGERKITITLPSGKVLVLSTPADPALVPLTVTSEFSPEEVAAKSA [r9_1075_JUSTAS]
[1]
  folding stability dG unfold: 0.395 ± 0.051 kcal/mol
[2]
  folding stability dG unfold: 0.0702 ± 0.097 kcal/mol
[3]
  folding stability dG unfold: 0.634 ± 0.057 kcal/mol

## SIEEIADTLQKLGLNVNIDDIELEPNPDGRFRIQVQVSGEPIRQVEVPPPPPPPPEEEVRDPDGKEHKVRSA [r9_442_TrROS]
[1]
  folding stability dG unfold: -0.404 ± 0.33 kcal/mol
[2]
  folding stability dG unfold: -0.281 ± 0.26 kcal/mol
[3]
  folding stability dG unfold: -0.188 ± 0.086 kcal/mol

## SAGGSALRIPPGEKIKVRNPDNGKPFEFKVTNWQMNPNGNAYFQVEMTSDGKKVKWPIPLDDIEVVSAGGSA [r15_62_TrROS]
[1]
  folding stability dG unfold: 0.0757 ± 0.28 kcal/mol
[2]
  folding stability dG unfold: 0.358 ± 0.37 kcal/mol
[3]
  folding stability dG unfold: -0.397 ± 0.21 kcal/mol

## SAGGSAGGSAGGPPLKVTEVETHKHPNGHRYVTMTLRPPNGGPVTIMFDPNNGKIQIMISAGGSAGGSAGGS [r10_1218_TrROS]
[1]
  folding stability dG unfold: 2.94 ± 0.24 kcal/mol
[2]
  folding stability dG unfold: 3.35 ± 0.19 kcal/mol
[3]
  folding stability dG unfold: 2.19 ± 0.13 kcal/mol

## SAGGSAGGSASLSPDEEVEITDPANGTKYKVTKLPDGTVLLENPETGETYVRTDSNDWKLTSAGGSAGGSAG [r3_96_JUSTAS]
[1]
  folding stability dG unfold: 0.932 ± 0.15 kcal/mol
[2]
  folding stability dG unfold: 0.88 ± 0.18 kcal/mol
[3]
  folding stability dG unfold: 0.88 ± 0.04 kcal/mol

## SAGGEEELRKAAEIAAAPPLEIEPVLETFTVETEEGPRVVLVISPVVRFPGDGVLIPNPVLVIPAEELSAGG [r19_11_TrMRF]
[1]
  folding stability dG unfold: 0.699 ± 0.11 kcal/mol
[2]
  folding stability dG unfold: 0.301 ± 0.11 kcal/mol
[3]
  folding stability dG unfold: 0.861 ± 0.052 kcal/mol

## SAGGSAGGSAGGEKIVLKVKPGDTVEVNGKTIKVPPGALITFDKKTKKLTIEPLSPEDLSAGGSAGGSAGGS [r10_353_TrROS_Hall]
[1]
  folding stability dG unfold: 1.11 ± 0.19 kcal/mol
[2]
  folding stability dG unfold: 1.14 ± 0.26 kcal/mol
[3]
  folding stability dG unfold: 0.954 ± 0.058 kcal/mol

## SAGGSAGGSMIEYPELTLEELKAKFEAEGYTVEEEPPTNVVTLTPPDGTPITVTVTPVPESLLSAGGSAGGS [r12_211_JUSTAS]
[1]
  folding stability dG unfold: 0.803 ± 0.057 kcal/mol
[2]
  folding stability dG unfold: 0.352 ± 0.013 kcal/mol
[3]
  folding stability dG unfold: 1.21 ± 0.043 kcal/mol

## SAGGSAGGSSQRIKIEDIEPPPNGQWRVRIKMPNGKEREVTMPPDKLEIELPPNITDVSLWPVSAGGSAGGS [r20_194_TrROS]
[1]
  folding stability dG unfold: 4.01 ± 0.33 kcal/mol
[2]
  folding stability dG unfold: 3.91 ± 0.33 kcal/mol
[3]
  folding stability dG unfold: 3.88 ± 0.16 kcal/mol

## SAGGSAGGSAGSMLTTTLPNGTPVTREFDIQDVEPKGDVIKVVITNPTGGEVPASTVIGPVNSAGGSAGGSA [r18_163_JUSTAS]
[1]
  folding stability dG unfold: 0.657 ± 0.081 kcal/mol
[2]
  folding stability dG unfold: 0.757 ± 0.03 kcal/mol
[3]
  folding stability dG unfold: 0.412 ± 0.051 kcal/mol

## SAGGSAGGSAGSITLPDGLTLTWNPATNTLTITLTAPPPPTTTTTTKPAATTTTTTTTTTSAGGSAGGSAGG [r11_331_TrROS_Hall]
[1]
  folding stability dG unfold: 1.87 ± 0.14 kcal/mol
[2]
  folding stability dG unfold: 1.77 ± 0.092 kcal/mol
[3]
  folding stability dG unfold: 2.18 ± 0.086 kcal/mol

## SAGGGSSSLPAVPVSVETFTFPYKTEEEAKAAAEELAKKLEAEDGKPVKVEVSFDPATGTATVTITVVSAGG [r13_517_JUSTAS]
[1]
  folding stability dG unfold: 3.815 ± 0.035 kcal/mol
[2]
  folding stability dG unfold: 3.791 ± 0.036 kcal/mol
[3]
  folding stability dG unfold: 4.2 ± 0.16 kcal/mol

## SAGGSAGMDPSKVSLSISTKTYTDTATGRKVEELYFEGSGKKVTVTTLPDGTKIVTYENGVVIEVESAGGSA [r15_617_JUSTAS]
[1]
  folding stability dG unfold: 0.314 ± 0.054 kcal/mol
[2]
  folding stability dG unfold: -0.672 ± 0.24 kcal/mol
[3]
  folding stability dG unfold: 0.758 ± 0.024 kcal/mol

## SMMYLVKIKVRNKETGELVEEIELVVESEEEAEKIAEELAEELGLEVEVEVKRISPEELEDPEILKELLESA [r9_864_TrROS_Hall]
[1]
  folding stability dG unfold: 3.27 ± 0.23 kcal/mol
[2]
  folding stability dG unfold: 3.53 ± 0.088 kcal/mol
[3]
  folding stability dG unfold: 2.77 ± 0.13 kcal/mol

## SAGDADEDPVLVVFVRTEERPLVVVRRVEPDEDPEEVAKELAAEIREKLGPDVEVFVEMVRREDAEKLFSAG [r5_583_TrMRF]
[1]
  folding stability dG unfold: 2.42 ± 0.11 kcal/mol
[2]
  folding stability dG unfold: 2.44 ± 0.039 kcal/mol
[3]
  folding stability dG unfold: 2.27 ± 0.052 kcal/mol

## SAGKPIDLGEVEVEISPVSYDPETGKLTYQARLVTKDGKPIYTASVTYDPKTGKFSISVTPIGYDPSAFSAG [r5_200_TrMRF]
[1]
  folding stability dG unfold: 2.2 ± 0.14 kcal/mol
[2]
  folding stability dG unfold: 1.99 ± 0.12 kcal/mol
[3]
  folding stability dG unfold: 2.26 ± 0.057 kcal/mol

## SAGGFLEAIKNGKPVIFHVLVKHPGSGEVEEYPILVHPDKPIDLEKLIKELFPEDFEAEIFVSDFGFSAGGS [r8_127_TrMRF]
[1]
  folding stability dG unfold: 1.89 ± 0.089 kcal/mol
[2]
  folding stability dG unfold: 2.11 ± 0.058 kcal/mol
[3]
  folding stability dG unfold: 1.3 ± 0.13 kcal/mol

## SQNGGPKRKVTITIIIVIPPGQRNPDGKPRPSVEELARYLQKELQEQFPGNKDVKIDITIIPLGDPEQIKSA [r9_329_TrROS]
[1]
  folding stability dG unfold: 2.33 ± 0.21 kcal/mol
[2]
  folding stability dG unfold: 2.86 ± 0.15 kcal/mol
[3]
  folding stability dG unfold: 2.06 ± 0.069 kcal/mol

## SAGMTTTLTKGEDGVTLTFDLPGQSVTLTVPVPPDVEVTTSFPATGTTITGTPVGDTLTITVTVPAPASAGG [r19_384_JUSTAS]
[1]
  folding stability dG unfold: 1.69 ± 0.038 kcal/mol
[2]
  folding stability dG unfold: 1.52 ± 0.041 kcal/mol
[3]
  folding stability dG unfold: 1.78 ± 0.028 kcal/mol
